From patent US20180094062A1 (Hoffmann-La Roche, published 2018)

Legend:
[1] = target: T1, human recombinant HER3 Extracellular Domain (HER3 ECD) (human, UniProt P21860 20-643); test: SPR Biacore T100, antibody captured, 25 C
T1 construct: 68 kDa; also called human-Her3-ECD

[2] = target: T2, HER3 ECD-HRG complex (Heregulin-activated Her-3 ECD) (human, UniProt P21860 20-643); test: SPR Biacore 3000, antibody captured, 25 C
T2 construct: receptor-ligand complex made by preincubating HER3 ECD with a five-fold molar excess of Heregulin; also called Heregulin/Her-3 ECD; Heregulin-complexed Her-3 ECD
Procedure: A CM5 series sensor was mounted into the system and was normalized in HBS-ET buffer (10 mM HEPES pH 7.4, 150 mM NaCl, 3 mM EDTA, 0.005% w/v Tween 20) according to the manufacturer's instructions. The sample buffer was the system buffer supplemented with 1 mg/ml CMD (Carboxymethyldextran). The system operated at 25° C. 10000 RU RAM-Fey (relative units of Fey-fragment Rabbit Anti-Mouse IgG/Jackson Laboratories) were immobilized according to the manufacturer's instructions using EDC/NHS chemistry on all flow cells. The sensor was deactivated using 1M ethanolamine.

MR (Molar Ratio) [1]: 0.5
MR (Molar Ratio) [2]: 1.1
B1: anti-HER3 antibody M-08-11 (antibody, V domains shown)
VH: QAYLQQSGAELMRPGASVRMSCQASGYTFTSYTIHWLKQTPRQGLEWIGAIYPRNGDFSYNQKFKDKASLTVDTSSSTAYMHLSSLTSEDSAVYFCARTINYGDWFAYWGQGTLVTVSA
VL: DIQMIQSPASLFVSEGETVIITCRASENIYSNLAWYHQKKGKSPQVLVYAAIKLADGVPLRFSGSGSGTQFSLKINSLQSEDFGSYYCQHFWGPPYTFGSGTNLEIK
notes: mouse monoclonal antibody from hybridoma, tested as hybridoma supernatant or as antibody; also called M-011
